Source: patent US20200129630A1, “METHODS FOR TREATING CANCER” (BicycleRD Limited, priority 2018, published 2020)
Several values for one entry are separate records, joined by “and”; a condition that tells them apart may be missing. Identical values can stand only once. Like-named read-outs stand apart in the source and are kept apart here. Numbered stars: 1 amine (or outer) side, 2 acyl side, 3 side chain; on linkers, the order of the positions; unused ones are H or OH. Bridge positions count the residues as written; N and C are the ends. Square brackets hold non-standard residues; d marks the D form. Peptide text beside a SMILES is read from it. * marks the point of attachment. X1 = COc1cc2cc(c1Cl)N(C)C(=O)C[C@H](OC(=O)[C@H](C)N(C)C(=O)CCSSC(C)CCC(=O)*)[C@]1(C)O[C@H]1[C@H](C)[C@@H]1C[C@@](O)(NC(=O)O1)[C@H](OC)/C=C/C=C(\C)C2; 1Nal = N[C@@H](Cc1cccc2ccccc12)C(=O)O; TBMB = c1c(C[*:1])cc(C[*:3])cc1C[*:2]; Tle = CC(C)(C)[C@H](N)C(=O)O; βAla = NCCC(=O)O; Sar = CNCC(=O)O

Key:
[1] = Plasma protein binding, dog; assay type: in vitro ADME; details: read-out: free fraction
Description: (§1) Plasma protein binding of BT1718 was also assessed. The mean plasma protein binding of the BT1718 peptide ranged from 87% to 98%, with the free fraction of BT1718 being 13% in human, 2.6% in rats, 7.5% in mice, 3.8% in monkey and 1.5% in dog plasma, the results had no correlation to the plasma and whole blood stability data. […] Plasma protein binding of unconjugated DM1, has previously been reported, with the unbound fraction being 7% in human and monkey and 3% in rat.

[2] = Clinical pharmacokinetics of BT1718, 1 h intravenous infusion; assay type: in vivo, patients; details: for clearance / half-life / Vd: human, plasma
Text: Intact BT1718 and total DM1 (DM1 in BT1718, any peptidyl-DM1 metabolites of BT1718, and other DM1-containing mixed disulfides and free DM1) will be measured in plasma according to agreed standard operating procedures (SOPs) and validated methods in Phase I, dose escalation phase (Stage 1 and 2) and potentially in Phase IIa, expansion phase (Parts A and B), dependent on emerging data.
The plasma concentration/time data will be analyzed using non-compartmental methods. The PK parameters to be determined for intact BT1718 include Cmax, Tmax, AUC, t1/2, total body clearance (CLT) and Vdss. The PK parameters to be determined for total DM1 include Cmax, Tmax, AUC and t1/2.
The preliminary clinical pharmacokinetic data for BT1718 following a 1 hour intravenous infusion to patients are shown in Table 13 below.

[3] = Distribution into blood cells; assay type: in vitro ADME; details: comparable across human and all preclinical species tested
[4] = Non-GLP toxicity studies, rat; assay type: in vivo
Description: In a GLP-compliant study in Cynomolgus monkeys, the highest non-severely toxic dose (HNSTD) of BT1718 was established to be 18 mg/m^2 administered twice weekly, equivalent to a human dose of 0.48 mg/kg. In a GLP-compliant study in the rat, the MTD was not reached with the highest administered dose 6 mg/m^2 twice weekly. At this dose level, there was kidney toxicity (with no effect on clinical condition) and also testicular toxicity. After 28 days off-dose, there was evidence of partial recovery of kidney-related findings, but no recovery of testicular effects at this dose level. […] Therefore, the MTD for rat for twice weekly dosing was considered to be between 1 and 1.5 mg/kg.

[5] = Plasma protein binding, mouse; assay type: in vitro ADME, mice; details: read-out: free fraction
Description: as §1

[6] = Stability in whole blood in vitro, dog; assay type: in vitro ADME; details: 37° C.
Description: The stability of BT1718 was assessed in plasma and whole blood from humans, monkey, dog, mouse and rat. […] The mechanism for the difference in stability of the BT1718 peptide in whole blood between the different species is unknown.

[7] = Plasma protein binding, rat; assay type: in vitro ADME, rats; details: read-out: free fraction
Description: as §1

[8] = Crl:WI(Han) rat non-GLP tox study toxicokinetics; assay type: in vivo, Crl: WI(Han) rats; details: male, plasma, iv
[9] = tested on: EBC-1 xenograft; assay: Dosing schedule experiment in EBC-1 xenograft mice; details: 60 mg/m^2 once weekly
Description: Anti-tumor activity was compared when equivalent total weekly doses were administered either once, twice or three times weekly or once daily.

[10] = 9.6 mg/m^2, 1 h IV infusion, individual patients

COc1cc2cc(c1Cl)N(C)C(=O)C[C@H](OC(=O)[C@H](C)N(C)C(=O)CCSSC(C)CCC(=O)NCCC(=O)N(C)CC(=O)N(C)CC(=O)N(C)CC(=O)N(C)CC(=O)N(C)CC(=O)N(C)CC(=O)N(C)CC(=O)N(C)CC(=O)N(C)CC(=O)N(C)CC(=O)N[C@@H](C)C(=O)N[C@H]1CSCc3cc4cc(c3)CSC[C@H](NC(=O)[C@@H](C)NC(=O)[C@H](Cc3cccc5ccccc35)NC(=O)[C@H](CCC(=O)O)NC(=O)[C@H](CC(N)=O)NC(=O)[C@@H](C)NC1=O)C(=O)N[C@@H](CCC(=O)O)C(=O)N[C@@H](CC(=O)O)C(=O)N[C@@H](Cc1ccccc1)C(=O)N[C@@H](Cc1ccc(O)cc1)C(=O)N[C@@H](CC(=O)O)C(=O)N[C@@H](C(C)(C)C)C(=O)N[C@H](C(N)=O)CSC4)[C@]1(C)O[C@H]1[C@H](C)[C@@H]1C[C@@](O)(NC(=O)O1)[C@H](OC)/C=C/C=C(\C)C2 (stereo partly drawn) [BT1718] ({X1-βAla}-[Sar][Sar][Sar][Sar][Sar][Sar][Sar][Sar][Sar][Sar]AC[dA]NE[1Nal][dA]CEDFYD[Tle]C-NH2; linker 12-18-25 via TBMB (inferred))
fraction unbound [1]: 0.015
CLp [2, 10]: 4.4 mL/min/kg and 10.2 mL/min/kg
Vss [2, 10]: 0.18 L/kg
t½ [2, 10]: 17 min and 14 min
clearance ([2]; intravenous, Data for all patients, read-out: CLp): 10 mL/min/kg
half-life ([2]; intravenous, Data for all patients, read-out: t½): 18 min
clearance ([2]; intravenous, Data for cycle 1 only, read-out: CLp): 12 mL/min/kg
half-life ([2]; intravenous, Data for cycle 1 only, read-out: t½): 18 min
clearance ([2]; intravenous, patients, read-out: Mean (±SD) plasma clearance (CLp) (converted)): 538 mL/min
Vd ([2]; intravenous, patients, read-out: mean (±SD) volume of distribution (Vss)): 22.9 L
half-life ([2]; intravenous, patients, read-out: terminal half-life (t½)): 12 to 60 min
clearance ([2]; iv, 1.2 mg/m^2, 1.2 mg/m^2, 1 h IV infusion, individual patient, read-out: CLp): 12.5 mL/min/kg
Vd ([2]; iv, 1.2 mg/m^2, 1.2 mg/m^2, 1 h IV infusion, individual patient, read-out: Vss): 0.23 L/kg
half-life ([2]; iv, 1.2 mg/m^2, 1.2 mg/m^2, 1 h IV infusion, individual patient, read-out: t½): 6 min
clearance ([2]; iv, 2.4 mg/m^2, 2.4 mg/m^2, 1 h IV infusion, individual patient, read-out: CLp): 18.4 mL/min/kg
Vd ([2]; iv, 2.4 mg/m^2, 2.4 mg/m^2, 1 h IV infusion, individual patient, read-out: Vss): 0.3 L/kg
half-life ([2]; iv, 2.4 mg/m^2, 2.4 mg/m^2, 1 h IV infusion, individual patient, read-out: t½): 6 min
clearance ([2]; iv, 4.8 mg/m^2, 4.8 mg/m^2, 1 h IV infusion, individual patient, read-out: CLp): 13.3 mL/min/kg
Vd ([2]; iv, 4.8 mg/m^2, 4.8 mg/m^2, 1 h IV infusion, individual patient, read-out: Vss): 0.19 L/kg
half-life ([2]; iv, 4.8 mg/m^2, 4.8 mg/m^2, 1 h IV infusion, individual patient, read-out: t½): 10 min
Vd ([2]; iv, 9.6 mg/m^2, 9.6 mg/m^2, 1 h IV infusion, individual patients, read-out: Vss): 0.15 L/kg
half-life ([2]; iv, 9.6 mg/m^2, 9.6 mg/m^2, 1 h IV infusion, individual patients, read-out: t½): 16 min
AUC vs dose ([2]; over the range 0.6-25 mg/m2): approximately dose proportional
distribution into blood cells [3]: limited distribution into blood cells
tolerability ([4]; non-GLP rat, 9 mg/m^2 twice weekly): not well tolerated
GI findings ([4]; rat 5.03 mg/kg (30.2 mg/m^2) twice): Single cell necrosis of the ileum
bladder findings ([4]; rat, single administration of 40 mg/m^2): Bladder epithelial degeneration
peripheral haematology ([4]; rats 1.5 mg/kg, 9 mg/m^2 twice weekly): significant decreases in WBCs
hepatic findings ([4]; rats 3.35 mg/kg, 20.1 mg/m^2 twice weekly): Elevated liver enzymes
renal findings ([4]; rats >1 mg/kg, 6 mg/m^2 twice weekly): Moderate renal tubule degeneration and epithelial mitosis
fraction unbound [5]: 0.075
half-life [6]: > 1440 min
fraction unbound [7]: 0.026
Cmax ([8]; 1.2 mg/m2, read-out: C0/Cmax): 100 ± 10 nM
Cmax ([8]; 6 mg/m2, read-out: C0/Cmax): 400 ± 140 nM
weight loss [9]: > 10%
